Results from US8008547B2, “Glyphosate-N-acetyltransferase (GAT) genes” (E.I. duPont de Nemours, priority 2000, dated 2011).

Assay: Standard protocol for determination of kcat and KM (continuous spectrophotometric assay, Acetyl CoA hydrolysis at 235 nm)
Format: biochemical
Details: purified protein, about 23° C., 0.2 mM acetyl CoA; for Kcat: 20 mM HEPES pH 6.8, 10% ethylene glycol; for Km: pH 6.8, glyphosate 0.125 to 10 mM
Outline: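 KM from initial rates over 0.125–10 mM glyphosate, fitted by Lineweaver-Burke transformation of Michaelis-Menten; kcat/KM computed as kcat divided by KM. Continuous spectrophotometric read of acetyl-CoA hydrolysis at 235 nm.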

B1: SEQ ID NO: 504: GAT polypeptide (protein)
chain: MIEVKPINAEDTYELRHRVLRPNQPLEVCMYETDLLRGAFHLGGYYRGKLISIASFHQAEHSELQGQKQYQLRGMATLEGYREQKAGSSLIKHAEEILRKRGADLLWCNARTSASGYYKKLGFSEQGEVFETPPVGPHILMYKRLT
modifications: 8_1G2
notes: GAT polypeptide
Q: Which Kcat does the source give for B1 here?
A: 1.124 s⁻¹

B2: SEQ ID NO: 505: GAT polypeptide (protein)
chain: MLEVKPINAEDTYELRHKILRPNQPIEVCMYETDLLRGAFHLGGYYRGKLISIASFHQAEHSELQGQKQYQLRGMATLEGYREQKAGSSLIRHAEEILRKRGADLLWCNARTSASGYYKKLGFSEQGEIFDTPPVGPHILMYKRIT
modifications: 8_1G3
notes: GAT polypeptide
Q: With B2 as the molecule, how does the Kcat read?
A: 1.815 s⁻¹

B3: SEQ ID NO: 506: GAT polypeptide (protein)
chain: MLEVKPINAEDTYELRHRILRPNQPIEVCMYETDLLRGAFHLGGFYRGKLISIASFHQAEHSELQGQKQYQLRGMATLEGYREQKAGSSLIKHAEEILRKRGADMLWCNARTSASGYYKKLGFSEQGEIFETPPVGPHILMYKRLT
modifications: 8_1H7
notes: GAT polypeptide
Q: For B3, which Kcat is on record?
A: 1.6873 s⁻¹

B4: SEQ ID NO: 281: GAT polypeptide (protein)
chain: MIEVKPINAEDTYEIRHRILRPNQPLEACKYETDLLGGTLHLGGYYRGKLVSIASFHQAEHPELEGQKQYQLRGMATLEGYREQKAGSTLIRHAEELLRKKGADLLWCNARTSASGYYKKLGFSEQGEVYDIPPVGPHILMYKKLT
modifications: 10_6D11
notes: GAT polypeptide
Q: For B4, which Kcat is on record?
A: 1.04 s⁻¹

Q: And the Km?
A: 1200 µM

B5: SEQ ID NO: 507: GAT polypeptide (protein)
chain: MLEVKPINAEDTYELRHKILRPNQPLEVCMYETDLLRGAFHLGGYYRGKLISIASFHQAEHSDLQGQKQYQLRGMATLEGYREQKAGSSLIRHAEEILRKRGADLLWCNARTSASGYYKKLGFSEQGEVFDTPPVGPHILMYKRLT
modifications: 8_1H9
notes: GAT polypeptide
Q: With B5 as the molecule, how does the Kcat read?
A: 1.306 s⁻¹

B6: SEQ ID NO: 508: GAT polypeptide (protein)
chain: MIEVKPINAEDTYEIRHRILRPNQPLEACKYETDLLGGTFHLGGYYRGKLISIASFHNAEHSELEGQKQYQLRGMATLEGYREQKAGSTLIRHAEELLRKKGADLLWCNARTSVSGYYKKLGFSEQGEVYDIPPIGPHILMYKKLT
modifications: GAT1_21F12
notes: GAT polypeptide
Q: What does the source list for B6?
A: Kcat: 0.09 s⁻¹; Km: 4600 µM

B7: SEQ ID NO: 509: GAT polypeptide (protein)
chain: MIEVKPINAEDTYEIRHRILRPNQPLEACMYETDLLGGTFHLGGYYRGKLISIASFHQAEHSELEGQKQYQLRGMATLEGYREQKAGSTLIRHAEELLRKKGADLLWCNARTFVSGYYEKLGFSEQGEVYDIPPIGPYILMYEKLT
modifications: GAT1_24G3
notes: GAT polypeptide
Q: Which results are given for B7?
A: Kcat: 0.0817 s⁻¹; Km: 3800 µM

B8: SEQ ID NO: 510: GAT polypeptide (protein)
chain: MIEVKPINAEDTYEIRHRILRPNQPLEACMYETDLLGGTFHLGGYYRGKLISIASFHQAEHSELEGQKQYQLRGMATLEGYREQKAGSTLIRHAEELLRKKGADLLWCNARTSVSGYYKKLGFSEQGGVCDIPPIGPHILMYKKLA
modifications: GAT1_29G1
notes: GAT polypeptide
Q: With B8 as the molecule, how does the Kcat read?
A: 0.103 s⁻¹

Q: And the Km?
A: 4000 µM

B9: SEQ ID NO: 511: GAT polypeptide (protein)
chain: MIEVKPINAEDTYEIRHRILRPNQPLEACMYETDLLGGTFHLGGYYRGKLISIASFHQAEHPELEGQKQYQLRGMATLEGYREQKAGSTLIRHAEELLRKKGADLLWCNARTSVSGYYEKLGFSEQGEVYDIPPIGPHILMYKKLT
modifications: GAT1_32G1
notes: GAT polypeptide
Q: For B9, which Kcat is on record?
A: 0.075 s⁻¹

Q: What about the Km of the same molecule?
A: 3300 µM

B10: SEQ ID NO: 512: GAT polypeptide (protein)
chain: MIEVKPINAEDTYEIRHRILRPNQPLEACKYETDLLGGTFHLGGYYRGKLISIASFHNAEHSELEGQKQYQLRGMATLEGYREQKAGSTLIRHAEELLRKKGADLLWCNARTSVSGYYKKLGFSEQGEVYDIPPIGPHILMYKKLT
modifications: GAT2_15G8
notes: GAT polypeptide
Q: Which Kcat does the source give for B10 here?
A: 0.075 s⁻¹

Q: And the Km?
A: 2800 µM

B11: SEQ ID NO: 513: GAT polypeptide (protein)
chain: MIEVKPINAEDTYEIRHRILRPNQPLEACMYETDLLGGTFHLGGYYRGKLISIASFHQAEHPELEGQKQYQLRGMATLEGYREQKAGSTLIRHAEELLRKKGADLLWCNARTSVSGYYEKLGFSEQGEVCDIPPIGPHILMYKKLT
modifications: GAT2_19H8
notes: GAT polypeptide
Q: Which results are given for B11?
A: Kcat: 0.0683 s⁻¹; Km: 2800 µM

B12: SEQ ID NO: 514: GAT polypeptide (protein)
chain: MIEVKPINAEDTYEIRHRILRPNQPLEACMYETDLLGGTFHLGGYYRGKLISIASFHQAEHSELEGQKQYQLRGMATLEGYREQKAGSTLIRHAEELLRKKGADLLWCNARTSVSGYYKKLGFSEQGGVYDIPPIGPHILMYKKLT
modifications: GAT2_21F1
notes: GAT polypeptide
Q: What does the source list for B12?
A: Kcat: 0.07 s⁻¹; Km: 3000 µM

B13: SEQ ID NO: 282: GAT polypeptide (protein)
chain: MIEVKPINAEDTYEIRHRILRPNQPLEACKYETDLLGGAFHLGGYYRGKLISIASFHQAEHPELEGQKQYQLRGMATLEGYREQKAGSTLIRHAEELLRKKGADLLWCNARTSASGYYKKLGFSEQGGVYDIPPVGPHILMYKKLT
modifications: 10_8C6
notes: GAT polypeptide
Q: With B13 as the molecule, how does the Kcat read?
A: 0.362 s⁻¹

Q: What about the Km of the same molecule?
A: 700 µM

B14: SEQ ID NO: 283: GAT polypeptide (protein)
chain: MIEVKPINAEDTYEIRHRILRPNQPLEACKYETDLLGGTFHLGGYYQGKLISIASFHQAEHSELEGQKQYQLRGMATLEGYREQKAGSTLIRHAEELLRKKGADLLWCNARTSVSGYYKKLGFSEQGGVYDIPPIGPHILMYKKLT
modifications: 11C3
notes: GAT polypeptide
Q: For B14, which Kcat is on record?
A: 0.0467 s⁻¹

Q: What about the Km of the same molecule?
A: 3100 µM

B15: SEQ ID NO: 284: GAT polypeptide (protein)
chain: MIEVKPINAEDTYEIRHRILRPNQPLEACMYETDLLGGTFHLGGYYQGKLISIASFHQAEHSELEGQKQYQLRGMATLEGYREQKAGSTLIRHAEELLRKKGADLLWCNARTSASGYYEKLGFSEQGGVYDIPPIGPHILMYKKLA
modifications: 11G3
notes: GAT polypeptide
Q: For B15, which Kcat is on record?
A: 0.26 s⁻¹

Q: And the Km?
A: 1700 µM

B16: SEQ ID NO: 285: GAT polypeptide (protein)
chain: MIEVKPINAEDTYEIRHRILRPNQPLEACMYETDLLGGAFHLGGYYQGKLISIASFHKAEHSELEGQKQYQLRGMATLEGYREQKAGSTLIRHAEELLRKKGADLLWCNARTSVRGYYEKLGFSEQGGVYDIPPIGPHILMYKKLT
modifications: 11H3
notes: GAT polypeptide
Q: What does the source list for B16?
A: Kcat: 0.02 s⁻¹; Km: 1400 µM

B17: SEQ ID NO: 286: GAT polypeptide (protein)
chain: MIEVKPINAEDTYEIRHRILRPNQPLEACKYETDLLGGTFHLGGYYRGKLISIASFHQAEHPELEGQKQYQLRGMATLEGYREQKAGSTLIRHAEELLRKKGADLLWCNARTSASGYYKKLGFSEQGEVHDIPPTGPHILMYKKLT
modifications: 12_1F9
notes: GAT polypeptide
Q: With B17 as the molecule, how does the Kcat read?
A: 1.34 s⁻¹

Q: And the Km?
A: 3000 µM

B18: SEQ ID NO: 287: GAT polypeptide (protein)
chain: MIEVKPINAEDTYEIRHRILRPNQPLEACKYETDLLGGTFHLGGYYRGKLVSIASFHQAEHPELEGQKQYQLRGMATLEGYREQKAGSTLIRHAEELLRKKGADLLWCNARTSASGYYKKLGFSEQGEVYDTPPVGPHILMYKKLT
modifications: 12_2G9
notes: GAT polypeptide
Q: What does the source list for B18?
A: Kcat: 2.523 s⁻¹; Km: 1500 µM

B19: SEQ ID NO: 288: GAT polypeptide (protein)
chain: MIEVKPINAEDTYEIRHRILRPNQPLEACKYETDLLGGTFHLGGYYRGKLISIASFHQAEHPELEGQKQYQLRGMATLEGYREQKAGSTLIRHAEELLRKKGADLLWCNARTSASGYYKKLGFSEQGGVYDIPPVGPHILMYKKLT
modifications: 12_3F1
notes: GAT polypeptide
Q: For B19, which Kcat is on record?
A: 0.735 s⁻¹

Q: And the Km?
A: 900 µM

B20: SEQ ID NO: 289: GAT polypeptide (protein)
chain: MIEVKPINAEDTYEIRHRILRPNQPLEACKYETDLLGGTFHLGGYYRGKLISIASFHQAEHPELEGQKQYQLRGMATLEEYREQKAGSTLIRHAEELLRKKGADLLWCNARTSASGYYKKLGFSEQGEVYDAPPTGPHILMYKKLT
modifications: 12_5C10
notes: GAT polypeptide
Q: Which Kcat does the source give for B20 here?
A: 1.49 s⁻¹

Q: And the Km?
A: 1500 µM

B21: SEQ ID NO: 290: GAT polypeptide (protein)
chain: MIEVKPINAEDTYEIRHRILRPNQPLEACKYETDLLGGTFHLGGYYRGKLVSIASFHQAEHPELEGQKQYQLRGMATLEGYREQKAGSTLIRHAEELLRKKGADLLWCNARTSASGYYKKLGFSEQGGVYDIPPVGPHILMYKKLT
modifications: 12_6A10
notes: GAT polypeptide
Q: What does the source list for B21?
A: Kcat: 0.912 s⁻¹; Km: 1100 µM

B22: SEQ ID NO: 291: GAT polypeptide (protein)
chain: MIEVKPINAEDTYEIRHRILRPNQPLEACMYETDLLGGTFHLGGYYRGKLISIASFHQAEHPELEGQKQYQLRGMATLEEYREQKAGSTLIRHAEELLRKKGADLLWCNARTSASGYYKKLGFSEQGGVYDIPPVGPHILMYKKLT
modifications: 12_6D1
notes: GAT polypeptide
Q: Which Kcat does the source give for B22 here?
A: 0.817 s⁻¹

Q: And the Km?
A: 1200 µM

B23: SEQ ID NO: 292: GAT polypeptide (protein)
chain: MIEVKPINAEDTYEIRHRILRPNQPLEACKYETDLLGGTFHLGGYYRGKLISIASFHQAEHPELEGQKQYQLRGMATLEGYREQKAGSTLIRHAEELLRKKGADLLWCNARTSASGYYKKLGFSEQGEVYDIPPTGPHILMYKKLT
modifications: 12_6F9
notes: GAT polypeptide
Q: Which Kcat does the source give for B23 here?
A: 1.48 s⁻¹

Q: What about the Km of the same molecule?
A: 1900 µM
